Holding throughout (assay): SPR
Assay [1] has as its target SARS-CoV-2 Omicron BA.2 spike protein trimer (SARS-CoV-2) (UniProt P0DTC2).
Assay [2] concerns the target SARS-CoV-2 Omicron XBB.1 spike protein trimer (SARS-CoV-2) (UniProt P0DTC2).
The target of assay [3] is SARS-CoV-2 Omicron BA4.6 spike protein trimer (SARS-CoV-2) (UniProt P0DTC2).
Assay [4] has as its target SARS-CoV-2 Omicron BA2.75 spike protein trimer (SARS-CoV-2) (UniProt P0DTC2).
Assay [5] has as its target SARS-CoV-2 Omicron BQ.1.1 spike protein trimer (SARS-CoV-2) (UniProt P0DTC2).
Assay [6] addresses SARS-CoV-2 Omicron BA.5 spike protein trimer (SARS-CoV-2) (UniProt P0DTC2).

For “LiVE-Longer YTE chimera (ACE-2 LVE/STR-YTE fusion protein) (from UniProt Q9BYF1 18-740) (Fc fusion)”, the dissociation constant (Kd) – broadly, the free concentration of one partner at which half of the binding sites on the other are occupied at equilibrium, for simple one-to-one binding – in assay [1] came to 0.078 pM; in assay [2] it was 215 pM; in assay [3], 845 pM; in assay [4], 0.133 pM; in assay [5], 1.81 pM; in assay [6] it was 5.43 pM.
